Experimental data published in article PMC4686854 (2015).
Values belong to the binder of their own block, whether it stands above or below them.

How the values were obtained:
[1] = target: T1, mouse SAD-A KD-UBA fragment (kinase domain and UBA domain) (mouse); test: trans-inhibition of KD-UBA kinase activity, non-competitive fit (a = 0.19)
T1 chain: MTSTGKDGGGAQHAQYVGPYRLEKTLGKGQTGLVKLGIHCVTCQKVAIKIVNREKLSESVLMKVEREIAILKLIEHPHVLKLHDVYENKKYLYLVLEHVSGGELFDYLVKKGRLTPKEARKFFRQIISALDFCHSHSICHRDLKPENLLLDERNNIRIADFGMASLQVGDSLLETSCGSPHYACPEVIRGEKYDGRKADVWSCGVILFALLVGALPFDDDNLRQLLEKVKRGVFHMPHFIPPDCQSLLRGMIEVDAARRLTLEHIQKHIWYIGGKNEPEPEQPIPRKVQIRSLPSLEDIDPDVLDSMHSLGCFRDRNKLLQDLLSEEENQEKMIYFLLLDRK

[2] = target: T1, mouse SAD-A KD-UBA fragment (kinase …); test: apparent Ki from trans-inhibition of KD-UBA kinase activity; residual activity a=0.34
[3] = target: T1, mouse SAD-A KD-UBA fragment (kinase …); test: apparent Ki from trans-inhibition of KD-UBA kinase activity; fragment 506-653; residual activity a=0.14
[4] = target: T2, mouse SAD-A KD-UBA fragment (kinase domain and UBA domain) (mouse)
T2 sequence (Q69Z98 whole entry, looked up): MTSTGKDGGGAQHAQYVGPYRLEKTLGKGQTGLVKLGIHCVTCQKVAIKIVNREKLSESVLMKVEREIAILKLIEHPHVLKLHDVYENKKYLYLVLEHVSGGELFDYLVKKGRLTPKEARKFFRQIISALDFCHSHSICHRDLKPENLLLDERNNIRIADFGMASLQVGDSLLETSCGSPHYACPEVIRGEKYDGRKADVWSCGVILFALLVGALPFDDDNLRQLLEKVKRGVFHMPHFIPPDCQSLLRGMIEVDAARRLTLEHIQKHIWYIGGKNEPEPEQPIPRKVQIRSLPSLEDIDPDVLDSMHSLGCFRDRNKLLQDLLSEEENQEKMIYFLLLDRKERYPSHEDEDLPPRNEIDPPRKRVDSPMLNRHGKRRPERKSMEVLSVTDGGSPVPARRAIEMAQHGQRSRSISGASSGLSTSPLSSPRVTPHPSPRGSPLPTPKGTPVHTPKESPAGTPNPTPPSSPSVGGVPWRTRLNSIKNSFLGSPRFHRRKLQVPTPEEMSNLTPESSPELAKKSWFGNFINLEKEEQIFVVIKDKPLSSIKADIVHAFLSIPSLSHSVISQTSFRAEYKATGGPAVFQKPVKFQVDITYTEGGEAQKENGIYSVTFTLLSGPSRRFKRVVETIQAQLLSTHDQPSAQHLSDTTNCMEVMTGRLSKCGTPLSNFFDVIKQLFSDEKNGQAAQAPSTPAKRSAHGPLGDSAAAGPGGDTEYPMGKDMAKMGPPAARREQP

[5] = target: T1, mouse SAD-A KD-UBA fragment (kinase …); test: apparent Ki from trans-inhibition of KD-UBA kinase activity; residual activity a=0.19
[6] = target: T1, mouse SAD-A KD-UBA fragment (kinase …); test: trans-inhibition of KD-UBA kinase activity, non-competitive fit (a = 0.15)

Ki [1]: 5.85 µM
B1: mouse SAD-A AIS-KA1 fragment (residues 519-653) (domain or fragment)
chain: KKSWFGNFINLEKEEQIFVVIKDKPLSSIKADIVHAFLSIPSLSHSVISQTSFRAEYKATGGPAVFQKPVKFQVDITYTEGGEAQKENGIYSVTFTLLSGPSRRFKRVVETIQAQLLSTHDQPSAQHLSGIIPKS

Ki [2]: 24.8 µM
Binder: KKSWFGNFINLE [AIS peptide of mouse SAD-A (residues 519-530)]

Ki [3]: 5.82 µM
trans-inhibition of the kinase activity of KD-UBA (10 nM) towards Cdc25C peptide; residual activity at the plateau [4]: 15%
B2: mouse SAD-A C-terminal fragment containing the sequence N terminal to KA1 (506-530) (domain or fragment)
chain: MSNLTPESSPELAKKSWFGNFINLEKEEQIFVVIKDKPLSSIKADIVHAFLSIPSLSHSVISQTSFRAEYKATGGPAVFQKPVKFQVDITYTEGGEAQKENGIYSVTFTLLSGPSRRFKRVVETIQAQLLSTHDQPSAQHLSGIIPKS
modifications: No chemistry outside the sequence. Built as residues 506-653 of the 653-residue isoform: the N-terminal limit 506 comes from the printed 506-530 segment, and the C-terminal limit 653 is inferred from the protein end, as in the 519-653 and 530-653 fragments. In 4YOM entity 2, position 2 = K519, 14 = K531 and 136 = S653; the initiator Met and the LEHHHHHH tag are left out.

Ki [5]: 15.1 µM
Binder: MSNLTPESSPELAKKSWFGNFINLE [AIS-containing peptide of mouse SAD-A (residues 506-530)]

Ki [6]: 7.58 µM
trans-inhibition of the kinase activity of KD-UBA (10 nM) towards Cdc25C peptide; residual activity at the plateau [4]: 15%
Binder: MSNLTPESSPELAKKSWFGNFINLE (domain or fragment) [chimeric protein: mouse SAD-A residues 506-530 fused to a C-terminal thioredoxin-tag]
